PMC12730314, “The Role of Surfactants in Stabilizing Fluorescence Anisotropy for Protein–Aptamer Binding Affinity Measurements”

Columns and labels:
thrombin (human plasma) [1] = target: T1, thrombin (human plasma) (Homo sapiens, UniProt P00734;P00734 328-363;364-622); experiment: fluorescence anisotropy; 0.1% Tween 20, 25 nM aptamer; Hill fit; Thrombin: TGK (192 mM Tris, 5 mM KH2PO4, 25 mM glycine hydrochloride; pH not stated) +/- 0.1% Tween 20, thrombin stock in 1 mg/mL BSA, 25 C, 40 min; HSA: PBS +
thrombin (human plasma) [2] = target: T1, thrombin (human plasma); experiment: fluorescence anisotropy; 0.1% Tween 20, 50 nM aptamer; Hill fit; Thrombin: TGK (192 mM Tris, 5 mM KH2PO4, 25 mM glycine hydrochloride; pH not stated) +/- 0.1% Tween 20, thrombin stock in 1 mg/mL BSA, 25 C, 40 min; HSA: PBS +
thrombin (human plasma) [3] = target: T1, thrombin (human plasma); experiment: fluorescence anisotropy; 0.1% Tween 20, 75 nM aptamer; Hill fit; Thrombin: TGK (192 mM Tris, 5 mM KH2PO4, 25 mM glycine hydrochloride; pH not stated) +/- 0.1% Tween 20, thrombin stock in 1 mg/mL BSA, 25 C, 40 min; HSA: PBS +
thrombin (human plasma) [4] = target: T1, thrombin (human plasma); experiment: fluorescence anisotropy; no surfactant, 75 nM aptamer; Hill fit; Thrombin: TGK (192 mM Tris, 5 mM KH2PO4, 25 mM glycine hydrochloride; pH not stated) +/- 0.1% Tween 20, thrombin stock in 1 mg/mL BSA, 25 C, 40 min; HSA: PBS +
[5] = target: human serum albumin (HSA) (Homo sapiens, UniProt P02768 25-609); experiment: fluorescence anisotropy; PBS + 5 mM MgCl2, no Tween 20; saturable, poor 1:1 fit; 25 C, 40 min; HSA: PBS +; settings: protein: commercial
Sequence of human serum albumin (HSA) (P02768 25-609): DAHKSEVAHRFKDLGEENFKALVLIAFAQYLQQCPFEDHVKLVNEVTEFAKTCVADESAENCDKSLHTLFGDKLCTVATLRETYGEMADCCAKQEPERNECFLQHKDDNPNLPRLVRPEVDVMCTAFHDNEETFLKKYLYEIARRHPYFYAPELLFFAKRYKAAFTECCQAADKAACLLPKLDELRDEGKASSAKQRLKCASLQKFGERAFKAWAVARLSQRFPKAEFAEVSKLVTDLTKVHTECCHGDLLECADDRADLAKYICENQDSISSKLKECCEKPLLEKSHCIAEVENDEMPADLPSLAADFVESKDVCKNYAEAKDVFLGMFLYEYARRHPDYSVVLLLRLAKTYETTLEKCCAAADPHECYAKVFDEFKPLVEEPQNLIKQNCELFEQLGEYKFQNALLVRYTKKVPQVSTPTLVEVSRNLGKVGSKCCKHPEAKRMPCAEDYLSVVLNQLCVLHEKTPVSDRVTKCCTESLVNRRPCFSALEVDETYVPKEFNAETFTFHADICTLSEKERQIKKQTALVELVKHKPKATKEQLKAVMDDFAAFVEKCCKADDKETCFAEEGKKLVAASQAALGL

AGTCCGTGGTAGGGCAGGTTGGGGTGACT (structured_DNA) [TR-labeled thrombin-binding 29mer]
Kd (thrombin (human plasma) [1]): 35 nM
Kd (thrombin (human plasma) [2]): 53 nM
Kd (thrombin (human plasma) [3]): 30 nM
Kd (thrombin (human plasma) [4]): 54 nM

TCCACGATGTAGGATCCACATGAGCGCTCCTGTTACCCTG (ssDNA) [TR-labeled s10yh2]
binding result [5]: binds
